Assay results taken from patent publication US20230265179A1 (TWIST BIOSCIENCE, published 2023).
Residue numbers refer to the chain shown, from its start. Blank lines part the entries; values can stand above or below the binder they belong to.

Experiments:
[1] = target: T1, CD40L (UniProt P29965 1-261, limits assumed); assay: flow cytometry, 100 nM IgG, CD40L over-expressing Expi293 cells over parent Expi293 cells
T1 construct: whole, on cells; also called cytokine over-expressing Expi293 cells (CD40L)
T1 sequence (looked up): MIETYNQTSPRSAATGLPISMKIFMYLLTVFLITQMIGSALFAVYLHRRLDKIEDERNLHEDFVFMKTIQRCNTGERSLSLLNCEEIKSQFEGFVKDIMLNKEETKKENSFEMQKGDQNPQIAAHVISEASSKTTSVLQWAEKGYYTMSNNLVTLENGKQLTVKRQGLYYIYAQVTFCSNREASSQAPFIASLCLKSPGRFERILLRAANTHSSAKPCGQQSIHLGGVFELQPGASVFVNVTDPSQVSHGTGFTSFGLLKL
Description: (§1) All incubations and washes were in buffer containing PBS+1% BSA. MFI Ratio is defined by the mean fluorescence intensity (MFI) of the cytokine over-expressing Expi293 cell over the Expi293 parent cell. […] EC50 was calculated in GraphPad Prism.

[2] = target: T2, TSLP on over-expressing Expi293 cells (UniProt Q969D9 29-159, limits assumed); assay: flow cytometry, 100 nM, TSLP over-expressing Expi293 over parent cells
T2 construct: whole, on cells; Target of the flow cytometry assay; also called cytokine over-expressing Expi293 cells
Description: as §1

[3] = target: T3, TSLP (UniProt Q969D9 29-159); assay: SPR, Carterra LSA, antibody amine-coupled, 1:1 model
T3 construct: Soluble analyte of the SPR assay
Description: (§2) SPR experiments were performed on a Carterra LSA SPR biosensor equipped with a HC30M chip at 25° C. in HBS-TE. Antibodies were diluted to 10 μg/mL and amine-coupled to the sensor chip by EDC/NHS activation, followed by ethanolamine HCl quenching. Increasing concentrations of analyte were flowed over the sensor chip in HBS-TE with 0.5 mg/mL BSA with 5-minute association and 15-minute dissociation. Following each injection cycle the surface was regenerated with 2× 30-second injections of IgG elution buffer (Thermo). Data were analyzed in Carterra's Kinetics Tool software with 1:1 binding model.

[4] = target: T4, IL1RL2 over-expressed on Expi293 cells (UniProt Q9HB29 20-575, limits assumed); assay: flow cytometry, over-expressing Expi293 vs parent cells, 100 nM antibody;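 also: ratio is mean fluorescence intensity on over-expressing Expi293 cells divided by that measured on parental Expi293 cells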
T4 construct: whole, on cells; Target of the flow cytometry assay; MFI ratio is over-expressing cells over parent cells
T4 sequence (looked up): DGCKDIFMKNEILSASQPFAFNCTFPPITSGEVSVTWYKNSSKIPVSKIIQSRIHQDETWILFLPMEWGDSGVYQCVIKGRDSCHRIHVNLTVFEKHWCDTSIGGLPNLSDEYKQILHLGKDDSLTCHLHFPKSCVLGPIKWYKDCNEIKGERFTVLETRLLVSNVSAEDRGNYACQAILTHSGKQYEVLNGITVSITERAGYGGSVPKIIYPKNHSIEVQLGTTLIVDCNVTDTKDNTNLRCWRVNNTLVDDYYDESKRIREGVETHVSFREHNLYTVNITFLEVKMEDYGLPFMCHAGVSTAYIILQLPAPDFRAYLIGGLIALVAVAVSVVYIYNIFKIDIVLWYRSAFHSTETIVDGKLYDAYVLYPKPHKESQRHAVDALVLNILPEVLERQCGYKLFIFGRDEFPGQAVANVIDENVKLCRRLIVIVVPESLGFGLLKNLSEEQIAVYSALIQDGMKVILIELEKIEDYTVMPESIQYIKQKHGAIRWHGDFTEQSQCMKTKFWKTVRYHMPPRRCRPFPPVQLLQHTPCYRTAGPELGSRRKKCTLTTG
Description: as §1

[5] = target: T5, IL1RL2 (UniProt Q9HB29 20-335, limits assumed); assay: SPR (Carterra LSA), antibody immobilised, 1:1 model
T5 construct: Soluble analyte of the SPR runs
T5 sequence (looked up): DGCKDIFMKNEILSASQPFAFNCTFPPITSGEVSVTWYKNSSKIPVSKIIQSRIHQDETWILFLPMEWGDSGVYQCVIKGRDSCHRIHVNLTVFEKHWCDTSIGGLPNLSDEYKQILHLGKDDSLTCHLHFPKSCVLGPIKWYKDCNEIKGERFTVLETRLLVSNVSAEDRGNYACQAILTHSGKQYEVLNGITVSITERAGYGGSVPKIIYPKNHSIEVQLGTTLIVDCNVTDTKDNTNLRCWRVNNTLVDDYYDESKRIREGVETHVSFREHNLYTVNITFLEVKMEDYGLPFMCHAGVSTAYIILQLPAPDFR
Description: as §2

100 nM FACS (MFI Ratio) [1]: 18.6 MFI ratio
B1: CD40L-419 (antibody, V domains shown)
VH: EVQLLESGGGLVQPGGSLRLSCAASGFTFSNYAMSWVRQAPGKGLEWVSAITGSGSTTYYADSVKGRFTISRDNSKNTLYLQMNSLRAEDTAVYYCARAHDYDSMLMDYWGQGTLVTVSS
VL: DIQMTQSPSSLSASVGDRVTITCRAGQSISSYLNWYQQKPGKAPKLLIYASSTLQRGVPSRFSGSGSGTDFTLTISSLQPEDFATYYCQQSHSVPLTFGGGTKVEIK

100 nM FACS (MFI Ratio) [1]: 6.1 MFI ratio
B2: CD40L-434 (antibody, V domains shown)
VH: EVQLLESGGGLVQPGGSLRLSCAASGFGFSSYAMSWVRQAPGKGLEWVSAISGGGGSIYYADSVKGRFTISRDNSKNTLYLQMNSLRAEDTAVYYCARHGGYYYYYMDVWGQGTLVTVSS
VL: B1 VL with G26S, I29V, S31R, Y32F, S51A, R56P, H92Y, S93E, V94T

100 nM (MFI Ratio) [2]: 1.6 MFI ratio
Kd [3]: 5.12 nM
koff [3]: 0.000351 s⁻¹
kon [3]: 68500 M⁻¹ s⁻¹
B3: TSLP-7 (VHH)
VHH: EVQLVESGGGLVQPGGSLRLSCAASGLTFGTHVMGWFRQAPGKERELVTAINPAALTTYYADSVKGRFTISADNSKNTAYLQMNSLKPEDTAVYYCARDFWSAGDSWGQGTLVTVSS
notes: VHH-Fc (IgG2 Fc); not shown: IgG2 Fc of the VHH-Fc format

100 nM (MFI Ratio) [2]: 1.5 MFI ratio
B4: TSLP-15 (VHH)
VHH: EVQLVESGGGLVQPGGSLRLSCAASGFILDDYAMGWFRQAPGKEREFVATIAGGYTYYADSVKGRFTISADNSKNTAYLQMNSLKPEDTAVYYCPVFDGYTRIHWGQGTLVTVSS
notes: as for B3

100 nM FACS (MFI Ratio) [4]: 22.4
Kd [5]: 8.48 nM
koff [5]: 0.000342 s⁻¹
kon [5]: 40400 M⁻¹ s⁻¹
B5: IL1RL2-11 (VHH)
VHH: EVQLVESGGGLVQPGGSLRLSCAASGRTFSRYAMGWFRQAPGKEREFVAAINWSGARTYYADSVKGRFTISADNSKNTAYLQMNSLKPEDTAVYYCAVSQPLNYYTYYDARRYDWGQGTLVTVSS
notes: VHH-Fc based on IgG2 Fc

100 nM FACS (MFI Ratio) [4]: 13.9
Kd [5]: 8.13 nM
koff [5]: 0.000124 s⁻¹
kon [5]: 15300 M⁻¹ s⁻¹
B6: IL1RL2-23 (VHH)
VHH: B5 VHH with R27P, R31T, N52S, R57N
notes: VHH-Fc based on IgG2 Fc

100 nM FACS (MFI Ratio) [4]: 5.46
Kd [5]: 10.5 nM
koff [5]: 0.000279 s⁻¹
kon [5]: 26500 M⁻¹ s⁻¹
B7: IL1RL2-29 (VHH)
VHH: B5 VHH with R27G, R31A, A33T, N52S, A56G, R57S
notes: VHH-Fc based on IgG2 Fc

100 nM (MFI Ratio) [2]: 18.4 MFI ratio
B8: TSLP-31 (VHH)
VHH: EVQLVESGGGLVQPGGSLRLSCAASGNIFANNIMGWFRQAPGKERELVSAIFSDGSTYYADSVKGRFTISADNSKNTAYLQMNSLKPEDTAVYYCARDDIVGAWSLDCWGQGPLMTVSS
notes: as for B3

100 nM (MFI Ratio) [2]: 16.5 MFI ratio
B9: TSLP-34 (VHH)
VHH: B8 VHH with N27H, D99A, W104A, C108Y, P113T, M115V
notes: as for B3

100 nM (MFI Ratio) [2]: 21.2 MFI ratio
Kd [3]: 0.223 nM
koff [3]: 0.000181 s⁻¹
kon [3]: 809000 M⁻¹ s⁻¹
B10: TSLP-120 (antibody, V domains shown)
VH: QVQLVQSGAEVKKPGSSVKVSCKASGGTFSTYAISWVRQAPGQGLEWMGGIISINYAQKFQGRVTITADESTSTAYMELSSLRSEDTAVYYCAWGAKYALDSWGQGTLVTVSS
VL: DIQMTQSPSSLSASVGDRVTITCRASQTIGTYLNWYQQKPGKAPKLLIYSASSLQSGVPSRFSGSGSGTDFTLTISSLQPEDFATYYCQQTDGNPPTFGQGTKVEIK

100 nM (MFI Ratio) [2]: 0.7 MFI ratio
Kd [3]: 10.6 nM
koff [3]: 0.00113 s⁻¹
kon [3]: 106000 M⁻¹ s⁻¹
B11: TSLP-21 (VHH)
VHH: EVQLVESGGGLVQPGGSLRLSCAASGNIFSRYIMGWFRQAPGKERELVSAIFSDGSTLYADSVKGRFTISADNSKNTAYLQMNSLKPEDTAVYYCAKGGYSSGWFDYWGQGTLVTVSS
notes: as for B3

100 nM (MFI Ratio) [2]: 0.7 MFI ratio
B12: TSLP-28 (VHH)
VHH: EVQLVESGGGLVQPGGSLRLSCAASGFTFDDYEMGWFRQAPGKEREFVGSIGCDGSTLYADSVKGRFTISADNSKNTAYLQMNSLKPEDTAVYYCTTDCDDHCGWGQGTLVTVSS
notes: as for B3

100 nM (MFI Ratio) [2]: 12.3 MFI ratio
Kd [3]: 10.8 nM
koff [3]: 0.00177 s⁻¹
kon [3]: 164000 M⁻¹ s⁻¹
B13: TSLP-41 (VHH)
VHH: EVQLVESGGGLVQPGGSLRLSCAASGRTFSAHSVYTMGWFRQAPGKEREWVSAIFSDGDTYYADSVKGRFTISADNSKNTAYLQMNSLKPEDTAVYYCAIDEGMDYDGNFYDWGQGTLVTVSS
notes: as for B3

100 nM (MFI Ratio) [2]: 1.3 MFI ratio
Kd [3]: 10.2 nM
koff [3]: 0.000445 s⁻¹
kon [3]: 43600 M⁻¹ s⁻¹
B14: TSLP-24 (VHH)
VHH: EVQLVESGGGLVQPGGSLRLSCAASGGIFSINDIGWFRQAPGKEREFVAALSWIIGSGVYTYYADSVKGRFTISADNSKNTAYLQMNSLKPEDTAVYYCANEYGWGQGTLVTVSS
notes: as for B3

100 nM (MFI Ratio) [2]: 0.6 MFI ratio
B15: TSLP-27 (VHH)
VHH: EVQLVESGGGLVQPGGSLRLSCAASGSTFSDRAMGWFRQAPGKERELVSAIFSDGSTLYADSVKGRFTISADNSKNTAYLQMNSLKPEDTAVYYCASDVGMDVWGQGTLVTVSS
notes: as for B3

100 nM (MFI Ratio) [2]: 178 MFI ratio
Kd [3]: 19.4 nM
koff [3]: 0.000672 s⁻¹
kon [3]: 34700 M⁻¹ s⁻¹
B16: TSLP-6 (VHH)
VHH: EVQLVESGGGLVQPGGSLRLSCAASGMTFSSYVMGWFRQAPGKEREFVGEIILSKGFTYYADSVKGRFTISADNSKNTAYLQMNSLKPEDTAVYYCASGPGYYDSSAYYLYAFDIWGQGTLVTVSS
notes: as for B3

100 nM (MFI Ratio) [2]: 157 MFI ratio
Kd [3]: 9.67 nM
koff [3]: 0.000433 s⁻¹
kon [3]: 44700 M⁻¹ s⁻¹
B17: TSLP-11 (VHH)
VHH: EVQLVESGGGLVQPGGSLRLSCAASGFTFDDSDMGWFRQAPGKEREFVGAISWSGDSTYYKYYADSVKGRFTISADNSKNTAYLQMNSLKPEDTAVYYCANQYGWGQGTLVTVSS
notes: as for B3

100 nM (MFI Ratio) [2]: 5.1 MFI ratio
Kd [3]: 22.3 nM
koff [3]: 0.00178 s⁻¹
kon [3]: 79700 M⁻¹ s⁻¹
B18: TSLP-18 (VHH)
VHH: EVQLVESGGGLVQPGGSLRLSCAASGNIFTRNIMCWFRQAPGKEREGVSCISTGDGSTYYADSVKGRFTISADNSKNTAYLQMNSLKPEDTAVYYCAADSETSGNWVWGQGTLVTVSS
notes: as for B3

100 nM (MFI Ratio) [2]: 21 MFI ratio
B19: TSLP-33 (VHH)
VHH: EVQLVESGGGLVQPGGSLRLSCAASGFSLDYYGMGWFRQAPGKEREFVAAIHWNGDSTLYADSVKGRFTIIADNSKNTAYLQMNSLKPEDTAVYYCARGFSGWFPFDYWGQGTLVTVSS
notes: as for B3

100 nM FACS (MFI Ratio) [4]: 9.22
Kd [5]: 10.2 nM
koff [5]: 0.000784 s⁻¹
kon [5]: 76900 M⁻¹ s⁻¹
B20: IL1RL2-2 (VHH)
VHH: EVQLVESGGGLVQPGGSLRLSCAASGFTRSYYTMGWFRQAPGKERELVASITRGGGTTYADSVKGRFTISADNSKNTAYLQMNSLKPEDTAVYYCADVNGDWGQGTLVTVSS
notes: VHH-Fc based on IgG2 Fc

100 nM FACS (MFI Ratio) [4]: 7.16
Kd [5]: 3.82 nM
koff [5]: 0.000318 s⁻¹
kon [5]: 83300 M⁻¹ s⁻¹
B21: IL1RL2-31 (VHH)
VHH: B20 VHH with F27R, R29F, S30D, Y31S, T33D, R53F, G56V, T58N
notes: VHH-Fc based on IgG2 Fc

100 nM FACS (MFI Ratio) [4]: 18.1
Kd [5]: ≤ 0.103 nM
koff [5]: ≤ 1e-05 s⁻¹
kon [5]: 97200 M⁻¹ s⁻¹
B22: IL1RL2-24 (VHH)
VHH: EVQLVESGGGLVQPGGSLRLSCAASGRTFSTYDMGWFRQAPGKERELVASIVWIGGRTYYADSVKGRFTISADNSKNTAYLQMNSLKPEDTAVYYCADVNGDWGQGTLVTVSS
notes: VHH-Fc based on IgG2 Fc

100 nM FACS (MFI Ratio) [4]: 10.2
Kd [5]: 2.14 nM
koff [5]: 0.000194 s⁻¹
kon [5]: 90800 M⁻¹ s⁻¹
B23: IL1RL2-30 (VHH)
VHH: EVQLVESGGGLVQPGGSLRLSCAASGGTLRGFDIGWFRQAPGKEREFVAAVTWSGGSTNYADSVKGRFTISADNSKNTAYLQMNSLKPEDTAVYYCADVNGDWGQGTLVTVSS
notes: VHH-Fc based on IgG2 Fc
